Test [1] concerns the target T1, anchored ILT2 D4 domain protein (human, UniProt Q8NHL6 322-650).
T1 construct: on CHO cells; the entry includes leader remnant, V5 tag, and the ILT2 transmembrane and cytoplasmic parts
The test is described as follows: flow cytometry, CHO cells with anchored ILT2 domain proteins.

Test [2] has as its target T2, anchored ILT2 D2-D3-D4 domain protein (human, UniProt Q8NHL6 122-650).
T2 construct: on CHO cells; the entry includes leader remnant, V5 tag, and the ILT2 transmembrane and cytoplasmic parts
The description is as above.

The target in test [3] is T3, anchored ILT2 D3-D4 domain protein (human, UniProt Q8NHL6 223-650).
T3 construct: on CHO cells; the entry includes leader remnant, V5 tag, and the ILT2 transmembrane and cytoplasmic parts
T3 sequence (Q8NHL6 other isoform, or with tags, fused parts or gaps limits assumed): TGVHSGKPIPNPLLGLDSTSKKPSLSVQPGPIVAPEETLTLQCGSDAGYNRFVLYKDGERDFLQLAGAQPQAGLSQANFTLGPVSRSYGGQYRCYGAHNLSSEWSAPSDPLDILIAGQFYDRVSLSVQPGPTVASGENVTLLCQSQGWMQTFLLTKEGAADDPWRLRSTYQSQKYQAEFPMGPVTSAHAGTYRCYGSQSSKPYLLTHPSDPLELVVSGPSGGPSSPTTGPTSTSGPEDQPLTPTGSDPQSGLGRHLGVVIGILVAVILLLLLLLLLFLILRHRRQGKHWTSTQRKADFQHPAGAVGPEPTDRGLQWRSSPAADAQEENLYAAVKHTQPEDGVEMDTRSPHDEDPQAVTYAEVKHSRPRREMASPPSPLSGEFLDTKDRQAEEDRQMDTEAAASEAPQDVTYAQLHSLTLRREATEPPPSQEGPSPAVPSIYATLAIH
The description is as above.

Test [4] addresses T4, anchored ILT2 D2 domain protein (human).
T4 construct: on CHO cells; the entry includes leader remnant, V5 tag and CD24 GPI anchor signal
Described as above.

The target of test [5] is T5, anchored ILT2 D2-D3 domain protein (human, UniProt Q8NHL6 122-321).
T5 construct: on CHO cells; the entry includes leader remnant, V5 tag and CD24 GPI anchor signal
T5 sequence (Q8NHL6 other isoform, or with tags, fused parts or gaps limits assumed): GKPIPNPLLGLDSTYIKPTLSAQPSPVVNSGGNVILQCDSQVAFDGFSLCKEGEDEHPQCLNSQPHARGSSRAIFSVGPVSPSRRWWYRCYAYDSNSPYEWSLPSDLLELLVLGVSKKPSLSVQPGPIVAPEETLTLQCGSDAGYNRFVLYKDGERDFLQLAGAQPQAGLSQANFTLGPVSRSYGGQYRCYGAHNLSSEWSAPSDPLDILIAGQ
The test is described as above.

Test [6] deals with T6, anchored ILT2 D3 domain protein (human).
T6 construct: on CHO cells; the entry includes leader remnant, V5 tag and CD24 GPI anchor signal
T6 sequence (chain, as listed by the source limits assumed): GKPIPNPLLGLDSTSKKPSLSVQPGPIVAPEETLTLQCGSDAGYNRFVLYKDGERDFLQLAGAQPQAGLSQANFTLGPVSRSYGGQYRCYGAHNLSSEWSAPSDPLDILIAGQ
The description is as above.

In test [7] the target is T7, ILT-2_6xHis recombinant protein (human, UniProt Q8NHL6 24-458).
T7 construct: monomers purified by SEC; also called recombinant 6xHIS tagged ILT2; recombinant human ILT2 proteins
T7 sequence (Q8NHL6 other isoform, or with tags, fused parts or gaps limits assumed): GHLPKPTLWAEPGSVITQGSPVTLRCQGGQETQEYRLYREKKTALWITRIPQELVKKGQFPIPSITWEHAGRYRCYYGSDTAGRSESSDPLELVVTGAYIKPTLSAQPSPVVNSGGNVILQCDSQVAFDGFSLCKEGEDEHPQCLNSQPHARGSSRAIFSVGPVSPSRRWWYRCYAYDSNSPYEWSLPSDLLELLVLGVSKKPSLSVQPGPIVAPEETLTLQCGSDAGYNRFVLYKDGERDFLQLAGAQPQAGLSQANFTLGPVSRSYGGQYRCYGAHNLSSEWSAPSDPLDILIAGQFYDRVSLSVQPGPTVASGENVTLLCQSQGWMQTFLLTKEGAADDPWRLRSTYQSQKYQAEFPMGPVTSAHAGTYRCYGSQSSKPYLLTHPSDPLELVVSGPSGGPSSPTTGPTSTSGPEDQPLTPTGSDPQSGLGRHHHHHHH
Kind of test: SPR, antibody captured on Protein-A, soluble ILT2 analyte; 1:1 Binding. As for the experimental part: (§1) Measurements were performed on a Biacore T200 apparatus (Biacore GE Healthcare) at 25° C. In all Biacore experiments HBS-EP+(Biacore GE Healthcare) and NaOH 10 mM served as running buffer and regeneration buffer respectively. Sensorgrams were analyzed with Biacore T100 Evaluation software. Protein-A was purchased from (GE Healthcare). Human ILT2 recombinant proteins were cloned, produced and purified at Innate Pharma. Protein-A proteins were immobilized covalently to carboxyl groups in the dextran layer on a Sensor Chip CM5. The chip surface was activated with EDC/NHS (N-ethyl-N′-(3-dimethylaminopropyl) carbodiimidehydrochloride and N-hydroxysuccinimide (Biacore GE Healthcare)). Protein-A was diluted to 10 μg/ml in coupling buffer (10 mM acetate, pH 5.6) and injected until the appropriate immobilization level was reached (i.e. 600 RU). Deactivation of the remaining activated groups was performed using 100 mM ethanolamine pH 8 (Biacore GE Healthcare). […] For blank subtraction, cycles were performed again replacing ILT2 proteins with running buffer. The monovalent affinity analysis was conducted following a regular Capture-Kinetic protocol as recommended by the manufacturer (Biacore GE Healthcare kinetic wizard). Seven serial dilutions of human ILT2 proteins, ranging from 1.95 nM to 250 nM were sequentially injected over the captured antibodies and allowed to dissociate for 10 min before regeneration. The entire sensorgram sets were fitted using the 1:1 kinetic binding model or two state reaction model, as a function of the profile of the curves.

Test [8] deals with T8, human ILT6 (LILRA3) on CHO cells (human, UniProt Q8N6C8 24-434).
T8 construct: also called CHO ILT6 cell line; human ILT-6 polypeptide
T8 sequence (Q8N6C8 other isoform, or with tags, fused parts or gaps): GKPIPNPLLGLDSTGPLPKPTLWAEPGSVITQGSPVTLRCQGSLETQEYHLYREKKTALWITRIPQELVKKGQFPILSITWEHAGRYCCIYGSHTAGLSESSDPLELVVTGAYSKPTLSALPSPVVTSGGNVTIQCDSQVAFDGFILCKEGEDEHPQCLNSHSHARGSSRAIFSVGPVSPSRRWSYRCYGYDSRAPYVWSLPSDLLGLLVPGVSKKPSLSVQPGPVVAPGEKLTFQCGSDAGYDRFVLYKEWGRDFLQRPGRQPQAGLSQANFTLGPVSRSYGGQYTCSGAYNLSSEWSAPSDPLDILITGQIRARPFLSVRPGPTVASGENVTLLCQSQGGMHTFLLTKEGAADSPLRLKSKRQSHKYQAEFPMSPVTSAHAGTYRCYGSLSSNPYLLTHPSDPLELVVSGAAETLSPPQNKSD
The test is described as follows: flow cytometry, CHO transfectants. (A flow cytometer gives signals particle by particle.)

Test [9] deals with T9, ILT2 mutant 2 (human, UniProt Q8NHL6 24-650).
T9 construct: transfected in HEK293T cells; also called M2
T9 sequence (Q8NHL6 other isoform, or with tags, fused parts or gaps mutant): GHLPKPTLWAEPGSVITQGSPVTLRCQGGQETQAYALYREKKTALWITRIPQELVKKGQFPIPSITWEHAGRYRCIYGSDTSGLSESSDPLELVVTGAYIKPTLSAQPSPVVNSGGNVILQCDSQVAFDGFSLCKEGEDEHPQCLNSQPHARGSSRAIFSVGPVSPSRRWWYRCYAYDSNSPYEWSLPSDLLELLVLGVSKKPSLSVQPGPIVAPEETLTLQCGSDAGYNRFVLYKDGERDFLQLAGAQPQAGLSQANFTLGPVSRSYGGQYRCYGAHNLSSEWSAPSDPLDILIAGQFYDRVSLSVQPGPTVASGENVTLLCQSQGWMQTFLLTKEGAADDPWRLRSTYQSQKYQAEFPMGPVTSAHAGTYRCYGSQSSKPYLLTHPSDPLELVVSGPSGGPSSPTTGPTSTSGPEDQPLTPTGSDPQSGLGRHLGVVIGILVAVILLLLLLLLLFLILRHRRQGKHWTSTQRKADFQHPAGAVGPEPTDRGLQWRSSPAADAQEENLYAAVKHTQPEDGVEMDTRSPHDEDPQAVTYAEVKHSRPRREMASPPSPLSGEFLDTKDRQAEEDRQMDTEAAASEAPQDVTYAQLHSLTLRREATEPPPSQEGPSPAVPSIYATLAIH
The test is described as follows: flow cytometry, ILT2 point mutants.

Test [10] has as its target T10, biotinylated BirA-tagged ILT2 protein tetramerised on APC-conjugated streptavidin (human, UniProt Q8NHL6 24-458, limits assumed, 1 biotin molecule per ILT2 protein (BirA tag)).
T10 construct: ratio 1 streptavidin per 4 ILT2 protein; streptavidin-APC not written as a chain; also called ILT2-SA tetramers; recombinant biotinylated ILT2
Kind of test: flow cytometry blocking assay: ILT2-streptavidin-APC complexes pre-incubated with antibody, then added to WIL2-NS cells expressing HLA-A2; blocked ligand HLA-A2.

The target of test [11] is T11, human ILT2 (LILRB1) expressed at the surface of transfected cells (human, UniProt Q8NHL6 24-650).
T11 construct: also called CHO-ILT2; CHO ILT2 cell line
T11 sequence (Q8NHL6 24-650): as the sequence (Q8NHL6 other isoform, or with tags, fused parts or gaps mutant) above, with A34E, A36R, I76Y, S82A, L84R counted along it
The test is described as follows: flow cytometry, CHO-ILT2 cells. As for the experimental part: Cells were incubated with various concentrations of unlabeled anti-ILT2 antibodies from 30 μg/ml to 5×10-⁴ μg/ml, for 30 minutes at 4° C. After washes with staining buffer, cells were incubated for 30 min at 4° C. with Goat anti-human H+L AF488 secondary antibody (Jackson Immunoresearch #109-546-088) or Goat anti-mouse H+L AF488 secondary antibody for commercially available antibodies (Jackson Immuoresearch #115-545-146). Fluorescence was measured on an Accury C6 flow cytometer equipped with an HTFC plate loader.

Test [12] addresses T11, human ILT2 (LILRB1) expressed at the …. The test is described as follows: flow cytometry titration on HEK293T cells transfected with wild-type ILT2.
The target in test [13] is T6, anchored ILT2 D3 domain protein. The test is described as follows: flow cytometry on CHO cells expressing the anchored ILT2 D3 domain protein (SEQ ID NO: 48); stacked histograms, axis without numbers, no control histogram.
The target of test [14] is T10, biotinylated BirA-tagged ILT2 protein …. Kind of test: flow cytometry blocking assay: ILT2-streptavidin-APC complexes pre-incubated with antibody, then added to K562 cells expressing HLA-G; blocked ligand HLA-G.
A further test has as its target T12, ILT2 mutant 1 (human, UniProt Q8NHL6 24-650).
T12 construct: transfected in HEK293T cells; also called M1
Kind of test: flow cytometry titration on HEK293T cells transfected with ILT2 mutant 1.

The target of test [15] is T13, human ILT8 (LILRA6) on CHO cells (human, UniProt Q6PI73 24-477).
T13 construct: also called CHO ILT8 cell line
The test is described as follows: flow cytometry, CHO transfectants.

In test [16] the target is T14, human ILT4 (LILRB2) on CHO cells (human, UniProt Q8N423 23-597).
T14 construct: also called CHO ILT4 cell line
The test is described as follows: flow cytometry, CHO transfectants.

The target in test [17] is T15, human ILT5 (LILRB3) on CHO cells (human, UniProt O75022 24-626).
T15 construct: also called CHO ILT5 cell line
The test is described as follows: flow cytometry, CHO transfectants.

In test [18] the target is T16, human ILT3 (LILRB4) on CHO cells (human, UniProt Q8NHJ6 24-443).
T16 construct: also called CHO ILT3 cell line
Kind of test: flow cytometry, CHO transfectants.

Test [19] has as its target T17, human ILT1 (LILRA2) on CHO cells (human, UniProt Q8N149 24-475).
T17 construct: also called CHO ILT1 cell line
Kind of test: flow cytometry, CHO transfectants.

The target of test [20] is T18, human ILT7 (LILRA4) on CHO cells (human, UniProt P59901 28-494).
T18 construct: also called CHO ILT7 cell line
Kind of test: flow cytometry, CHO transfectants.

Test [21] addresses T1, anchored ILT2 D4 domain protein. The test is described as follows: flow cytometry on CHO cells expressing the anchored ILT2 D4 domain protein (SEQ ID NO: 49); stacked histograms, axis without numbers.
For test [22], the target named is T19, human ILT2 on primary NK cells (human, UniProt Q8NHL6 24-650).
T19 construct: whole, on cells
T19 sequence (Q8NHL6 24-650): as the sequence (Q8NHL6 other isoform, or with tags, fused parts or gaps mutant) above, with A34E, A36R, I76Y, S82A, L84R counted along it
The test is described as follows: flow cytometry, primary NK cells.

Test [23] addresses T9, ILT2 mutant 2. Kind of test: flow cytometry titration on HEK293T cells transfected with ILT2 mutant 2.
Test [24] concerns the target T19, human ILT2 on primary NK cells. The test is described as follows: cell-based or functional assay.
Test [25] deals with T7, ILT-2_6xHis recombinant protein. Kind of test: SPR, antibody captured on Protein-A, soluble ILT2 analyte. As for the experimental part:
as §1
A general note: SPR reads the build-up and loss of mass on a sensor chip optically.

Experimental findings from US20220025056A1 (INNATE PHARMA, published 2022) are described below.

T10 sequence (Q8NHL6 24-458 limits assumed): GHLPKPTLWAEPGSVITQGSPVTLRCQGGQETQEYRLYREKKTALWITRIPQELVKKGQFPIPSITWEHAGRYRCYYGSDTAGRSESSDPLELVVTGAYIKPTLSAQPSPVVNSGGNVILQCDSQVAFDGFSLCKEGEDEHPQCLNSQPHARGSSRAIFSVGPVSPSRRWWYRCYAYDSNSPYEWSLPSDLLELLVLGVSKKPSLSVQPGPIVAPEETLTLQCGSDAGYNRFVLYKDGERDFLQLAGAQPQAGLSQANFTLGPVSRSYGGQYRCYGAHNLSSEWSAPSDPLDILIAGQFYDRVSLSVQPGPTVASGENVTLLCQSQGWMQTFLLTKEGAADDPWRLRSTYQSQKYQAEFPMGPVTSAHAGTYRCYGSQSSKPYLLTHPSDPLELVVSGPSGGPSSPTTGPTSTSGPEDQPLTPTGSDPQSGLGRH
T4 sequence (chain, as listed by the source limits assumed): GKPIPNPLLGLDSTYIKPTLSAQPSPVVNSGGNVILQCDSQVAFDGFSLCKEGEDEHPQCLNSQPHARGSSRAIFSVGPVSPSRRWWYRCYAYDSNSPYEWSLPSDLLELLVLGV
T1 sequence (Q8NHL6 other isoform, or with tags, fused parts or gaps limits assumed): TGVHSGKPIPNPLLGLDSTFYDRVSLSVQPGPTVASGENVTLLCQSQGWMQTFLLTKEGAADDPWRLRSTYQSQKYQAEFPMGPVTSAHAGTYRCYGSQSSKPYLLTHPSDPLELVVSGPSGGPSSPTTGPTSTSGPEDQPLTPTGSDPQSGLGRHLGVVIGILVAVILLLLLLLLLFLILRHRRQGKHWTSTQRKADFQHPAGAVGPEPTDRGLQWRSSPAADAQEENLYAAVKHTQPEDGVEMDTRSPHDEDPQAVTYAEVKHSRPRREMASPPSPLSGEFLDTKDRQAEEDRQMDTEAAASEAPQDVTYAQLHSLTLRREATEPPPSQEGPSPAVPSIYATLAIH
T17 sequence (Q8N149 other isoform, or with tags, fused parts or gaps): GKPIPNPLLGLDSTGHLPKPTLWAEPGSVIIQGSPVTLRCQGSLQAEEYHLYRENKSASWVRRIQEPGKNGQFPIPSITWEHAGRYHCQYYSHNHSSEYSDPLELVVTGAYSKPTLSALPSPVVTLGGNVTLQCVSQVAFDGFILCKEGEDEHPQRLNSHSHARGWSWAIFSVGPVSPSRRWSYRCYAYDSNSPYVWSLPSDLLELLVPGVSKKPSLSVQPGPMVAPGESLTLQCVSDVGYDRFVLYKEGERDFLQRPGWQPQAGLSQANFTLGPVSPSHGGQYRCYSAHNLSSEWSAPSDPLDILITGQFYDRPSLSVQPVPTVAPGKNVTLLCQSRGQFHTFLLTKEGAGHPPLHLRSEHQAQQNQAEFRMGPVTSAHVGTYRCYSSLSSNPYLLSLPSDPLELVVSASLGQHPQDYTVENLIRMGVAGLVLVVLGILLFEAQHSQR

B1: 48F12 (antibody, human IgG1, V domains shown)
VH: QVQLKESGPGLVAPSQSLSITCTVSGFSLTSYGVSWVRQPPGKGLEWLGIIWGDGSTNYHSALVSRLSISKDNSKSQVFLKLNSLQTDDTATYYCAKPNWDYYAMDYWGQGTSVTVSS
VL: DIQMTQTTSSLSASLGDRVTISCRASQDISNYLNWYQQKVDGTVKLLISYTSRLHSGVPSRFSGSGSGTDYSLTISNLEQEDIATYFCQQGITLPLTFGAGTKLELK
What is called Kd is the free concentration of one partner at which half of the binding sites on the other are occupied at equilibrium, for simple one-to-one binding. Usually koff stands for the rate constant with which the complex falls apart. By kon is commonly meant the second-order rate constant of association. Turning to B1, the binding result in test [1], in test [2], in [3], in [4], in test [5] and in test [6] was “no binding” each time. Besides, the binding result (in [8]; with ILT2 mutant 2 [9]) was “no binding” each time. The Kd in test [7] turned out to be 0.2 nM. The koff in [7] is 0.0001 s⁻¹. The association rate constant (kon) in [7] stood at 500000 M⁻¹ s⁻¹. Moreover, the “IC50 (read off the curve)” value in test [10] was approximately 0.1 µg/mL.

B2: 12D12 (antibody, human IgG1, V domains shown)
VH: QVQLQQPGAELVKPGASVRMSCKASGYTFTSYWVHWVKQRPGQGLEWIGVIDPSDSYTSYNQNFKGKATLTVDTSSKTAYIHLSSLTSEDSAVYFCARGERYDGDYFAMDYWGQGTSVTVSS
VL: DIVMTQSPASLSVSVGETVTITCRASENIYSNLAWYQQKQGKSPQLLVYAATNLADGVPSRFSGSRSGTQYSLKINSLQSEDFGTYYCQHFWNTPRTFGGGTKLEIK
A word on the EC50: it is the concentration at which the effect is half-maximal. High values mean a less potent agent, low ones a more potent agent. One may read the EC50 (read off the curve) as the concentration at which the effect is half-maximal. A high value points to lower potency in that assay. As for B2, the EC50 in [11] came out at 0.36 µg/mL; in test [22], 0.09 µg/mL. In addition, the binding result in test [2], in test [3], in test [4], in test [5], in [13] and in test [15] was “no binding” each time. The binding result in [16], in test [8], in test [17], in [18], in [19] and in [20] was “no binding” each time. Moreover, the binding result is recorded as “no binding” in [21] and “no binding (tested: about 20 µg/ml)” in the test with ILT2 mutant 2 [23]. The figures for the “EC50 (read off the curve)” value (in [12]; with ILT2 mutant 1) were approximately 0.5 µg/mL and approximately 0.4 µg/mL, respectively. The “IC50 (read off the curve)” value was approximately 0.2 µg/mL in [14] and approximately 0.1 µg/mL in test [10]. For the same molecule, in [24], the “CD137 expression on ILT2-positive primary NK cells” value is 2 fold. In addition, the “CD137 expression on NK cells of urothelial cancer patients with HLA-A2-expressing B cells” value in test [24] is more than 2 fold. In test [25], the Kd turned out to be 1 nM. Moreover, the koff in test [25] stood at 0.00042 s⁻¹. The kon in [25] is 430000 M⁻¹ s⁻¹.
